# Test: soluble on expression in E. coli; label from the status in PepcDB or PDB records
row,Sequence,soluble on expression in E. coli
1,MNPDLRKERASATFNPELITHILDGSPENTRRRREIENLILNDPDFQHEDYNFLTRSQRYEVAVKKSATMVKKMREYGISDPEEIMWFKNSVHRGHPEPLDLHLGMFLPTLLHQATAEQQERFFMPAWNLEITGTYAQTEMGHGTHLRGLETTATYDPKTQEFILNSPTVTSIKWWPGGLGKTSNHAIVLAQLITQGECYGLHAFVVPIREIGTHKPLPGITVGDIGPKFGYEEMDNGYLKMDNYRIPRENMLMKYAQVKPDGTYVKPLSNKLTYGTMVFVRSFLVGNAAQSLSKACTIAIRYSAVRRQSEIKQSEPEPQILDFQTQQYKLFPLLATAYAFHFVGRYMKETYLRINESIGQGDLSELPELHALTAGLKAFTTWTANAGIEECRMACGGHGYSHSSGIPNIYVTFTPACTFEGENTVMMLQTARFLMKIYDQVRSGKLVGGMVSYLNDLPSQRIQPQQVAVWPTMVDINSLEGLTEAYKLRAARLVEIAAKNLQTHVSHRKSKEVAWNLTSVDLVRASEAHCHYVVVKVFSDKLPKIQDKAVQAVLRNLCLLYSLYGISQKGGDFLEGSIITGAQLSQVNARILELLTLIRPNAVALVDAFDFKDMTLGSVLGRYDGNVYENLFEWAKKSPLNKTEVHESYHKHLKPLQSKL,soluble
2,MNPERQETISPKNVPFQPVPTPNQQSLQSRMLESNQAVPDAFQKVAAWNHYNAVATPPIGVPQTARPPSNQSPHPNPPGYPYQSHQQQFHPLAIAFQQPFGLPQQVIYPPPPPGFTPHRVQVSPVGLLGPPGFFPQFAGSTTSQGNPSEVSVRTKSAEGTTGPIAPSITTKPTSTIQVAPPRDPVAPTTSSSGITKKPENGEFSLVKTISGHTKSVSVIKFSYCGKYLGTGSADKQIKVWNTVDMTYLQTLASHQLGINDFSWSSNSQFIASASDDTTVKIFDVISGACLRTMRGHTNYVFCCSFNPQSSLIASAGFDETVRVWDFKTGLCVKCIPAHSDPITSISYNHDGNTMATSSYDGCIRVWDAASGSCLKTLVDTDHAPVTFVCFSPNGKYLLSAQLDSSLKLWDPKKAKPLKYYNGHKNKKYCLFANMSVPLGKHIISGSEDGRILVWSIQTKQIVQILEGHTTPVLATDSHPTLNIIASGGLEPDNVIRIWRRN,not soluble
3,MNPLKKIKDWIAEGKAGWHLAGGRSSLKQGKYKEALKEFRKALKARPNNPEILHYNAITLLKLKRPEKALECYEKILKNNPKLAEAWNNKGLVLKELGRYDEALECYEKALKINPKYAGAWNNKALVLKELGRYDEALECYEKALQINPKLADAWYNKGSVLIYLKKYKKALKCFEKAIELNPKNYRAWGTKGITLHNLKIYEEALKCYDKVLQLNPQDDKAWNNKGLVFNELGRYDESLECYEKALQINPKLAEAWNNKGVVLSELGRYEEALECYEKALEIDPEDDKTWNNKGLVLEELGKYKDALECFQKALEINPEFADAWKWKGIILEDLKKPEESLKCYKKALKLNPPKQNTMVHARKNTTKTRQTQRSTKML,not soluble
4,MNPLLTDSRRQALRSASHWYAVLSGERVSPQQEARWQQWYEQDQDNQWAWQQVENLRNQLGGVPGDVASRALHDTRLTRRHVMKGLLLLLGAGGGWQLWQSETGEGLRADYRTAKGTVSRQQLEDGSLLTLNTQSAADVRFDAHQRTVRLWYGEIAITTAKDALQRPFRVLTRQGQLTALGTEFTVRQQDNFTQLDVQQHAVEVLLASAPAQKRIVNAGESLQFSASEFGAVKPLDDESTSWTKDILSFSDKPLGEVIATLTRYRNGVLRCDPAVAGLRLSGTFPLKNTDAILNVIAQTLPVKIQSITRYWINISPL,soluble
5,MNPTFLEFIGANQRSSCGYCKNDRGERTPARSAKSGAWAHSMTVNDYSGLLDVGWRRSGRYLYKPDNRVTCCPQYTIRLDVTKFKMSRSQKRAMRQMNEFLATGKRPVCGIKEEDAPVEMNLKGSGSQSEQSKKNLKSHEVSTKKMKDADRPVLTKKEIRNKKFEEKCRQKNLDPDVVRTERRQKDAARQRTIQSYIDEARPDWKHKLEVKLVSLGGDEFGTRDNESFELYKNYQHTIHKDEDCRLAGFRRFLCDSPLKKEQRGGIELGSFHLWFLLDDKLIAVCVVDILPKCFSAKYMYYNPEYSFLSLGTYTALREIEQTQRLHAIYSNLKYYYMGYYIHSCPKMRYKAKFRPSDLLCDQSFRWVDFNSCRDLLDGSTCSNGFSEFCPGAPRPASPVVDTLLVFSNGSITTLSDALTEIPEAAENEQFLANVRDLAHLVGPDLSRVVYYFNELNS,not soluble
6,MNPVHILAKKGEVAERVLVVGDPGRARLLSTLLQNPKLTNENRGFLVYTGKYNGETVSIATHGIGGPSIAIVLEELAMLGANVFIRYGTTGALVPYINLGEYIIVTGASYNQGGLFYQYLRDNACVASTPDFELTNKLVTSFSKRNLKYYVGNVFSSDAFYAEDEEFVKKWSSRGNIAVEMECATLFTLSKVKGWKSATVLVVSDNLAKGGIWITKEELEKSVMDGAKAVLDTLTS,soluble
7,MNQPSYTSGRQDVALLATTVGDAFDATVARHAEREALVVRHQRLRYSWRQLAERVDAYARAFIALGLRPGERLGIWAPNCAEWCITQFASAKVGAVLVNINPAYRSSELEYALKQSGCSWLICADAFKTSDYHAMLGDLLPELARARPGELASERLPELRGVISLAERAPAGFLHWQGLPGLAAAVGAEELRQRQASLQFDEPINIQYTSGTTGFPKGATLSHYNILNNGYMVGESLGLGAEDRLVIPVPLYHCFGMVMGNLGCVTHGSTMIYPAPSFDAEATLLAVAEERATALYGVPTMFIAELDHPRRREFDLSSLRTGIMAGATCPIEVMRRVIGDMHMAEVQIAYGMTETSPVSLQTGPDDGLELRVTTVGRTQPRLESKIVDQTGRVVPRGEIGELCTRGYSVMLGYWNDPQATAEAIDPARWMHTGDLAVMDDDGYVRIVGRSKDMIIRGGENIYPRELEEFFFTHPAVADVQVIGIPDERYGEEIVAWIKLHPGHHADDEQLRAFCKARIAHFKIPRHFKFVDEFPMTVTGKIQKFRMREISIEEIRLLALRQGR,not soluble
8,MNQRKLDHEVKTLQVQAAQFAKQTGQWIGMVENFNQALKEIGDVENWARSIELDMRTIATALEYVYKGQLQSAPS,soluble
9,MNQYSSFSPSSPSSSSRPSGGGGQSSHQTTPKSSGNPRQQQAQPRHRQRKAQSSSPASLAAFASSSVCSSPSARNVPLPPVEWLNQLQVPGQLENSSRPSSSISMTSSASSSTSSLSSSDAPMITMTPRRAAQKEMKPKTDVLGVRVCPLQLIAAIASA,not soluble
10,MNRFLKHWRLSGRCEAFHGQIISYADDFVILSRGHAEDALTWTKAVMTKLGLTLNETKTSVKNARLESFDFLGYTLGPRHFRNGGRWYLGAAPSKKSVLRIKRKVSELLTPGNKGAWPEVQARLNRLLRGWSAYFSYGSLATAHQAVDRHVFDRVLAFLRRRHKTPGRGVRRFSDQIYGNPGVLVLNRVRKVSPTCALLEHHHHHH,not soluble
11,MNRIIDMRCRPPLPEFREYFDIPRITWHGARTGAKQVSRAFVEGSMDLFFEEMDQAGIEIAVVQGRNSPAVFMGKQFNAAFIPNERLAQIQDQYAGRFVCFAGIDVSNTAHNAVEETVRSIKSLGLKGIFIEPGRQIQSTPDDERIFPVYEKCIELDIPVNLMSGPYAGADIGVSDPLYVDRLCTRYPELKIILGHGGYPYVQQILGVAFKHTNLFVSPDMYVFAPGGQAYIDAANGALRDQMVYGSAYPLRPVTQTVSDTLGLGLSADSERAYLELNARKLLNIAAALEHHHHHH,not soluble
12,MNRLPVDDVIPDLLTALEQRNAAVLQAPPGAGKTTRVPLALLDAPWLNGKRIIMLEPRRLAATNAARWMARSLGEEAGATVGYAIRFDRRVSARTRVEVVTEGILTRRLQSDPLLEGVGAVIFDEFHERSIHSDLALALCRDVQAGLREDLRIIVMSA,not soluble
13,MNRQIVRSALFVPATRPERIPKALASGADRVIVDLEDAVEEGLKVEARANLRRFLVDTPEARVLVRINAAEHPGHADDLALCRDHAGVIGLLLPKVESAAQVRHAAVASGKPVWPIVESARGLAALGEIAAAAGVERLSFGSLDLALDLDLNSGSNAAEQILGHARYALLLQTRLAGLAPPLDGVYPAIQNRAGLVEAVRFARDMGFGGLLCIHPSQVEPIHQTLMPSPAELEWARRVAEAGASGAGVFVVDGEMVDAPVLGRARRLLERAGEGG,not soluble
14,MNRRRKLLIPLLFCGAMLTACDDKSAENAAAMTPEVGVVTLSPGSVNVLSELPGRTVPYEVAEIRPQVGGIIIKRNFIEGDKVNQGDSLYQIDPAPLQAELNSAKGSLAKALSTASNARITFNRQASLLKTNYVSRQDYDTARTQLNEAEANVTVAKAAVEQATINLQYANVTSPITGVSGKSSVTVGALVTANQADSLVTVQRLDPIYVDLTQSVQDFLRMKEEVASGQIKQVQGSTPVQLNLENGKRYSQTGTLKFSDPTVDETTGSVTLRAIFPNPNGDLLPGMYVTALVDEGSRQNVLLVPQEGVTHNAQGKATALILDKDDVVQLREIEASKAIGDQWVVTSGLQAGDRVIVSGLQRIRPGIKARAISSSQENASTESKQ,not soluble
15,MNRSDKWQQRVAQVAYRFNQQYQNQSLELPAEVQEMPIYREWISGILAGKIASPFWEMAQPQKNQHCLDIGCGVSFLIYPWRDWQAFFYGQDVSNVARDTLNSRGSQLNSKLFKGVELGAAHQLKYTLSYFDLAIATGFSCYFPLEYWTSVLQAVKRVLKPDGHFVFDILNAAHPQAEDWAVLETYLGAEVFLEPVTEWEKIINAAGAKVVGRQPGEFFDLYKLRLEHHHHHH,not soluble
16,MNSFYSQEELKKIGFLSVGKNVLISKKASIYNPGVISVGNNVRIDDFCILSGKVTIGSYSHIAAYTALYGGEVGIEMYDFANISSRTIVYAAIDDFSGNALMGPTIPNQYKNVKTGKVILKKHVIIGAHSIIFPNVVIGEGVAVGAMSMVKESLDDWYIYVGVPVRKIKARKRKIVELENEFLKSMNSLEHHHHHH,not soluble
17,MNSLFLLLFICFNSGCGRKYYEEDIDRAFRSAEAEILPFRPHNVFSSDDSLMLNYSIAALAAIKMAQKTRDPRQKLPHHLCPLKKYNCLYGKYRHSDGRCTNIFFALSGSAYSSFSRRIPANYDDDISTPRLHGYRNGLLPPPAVVEKQIARTPAIYAISLTNTFLEFSEFLYNDLVKFVRLQDGLGCCGTGKSGECLNFGENFLDCYIRSAPSPRAHCSLGRREQMNLATAFLDAGPIYQDLRDTSKGKISSSFTLESTTKSSIHSLLIDEHNWVVDQIQKKFPDMGLELIFEEARKFVIAELQHITFEQFLPILLGDETMKKYDLRASHCDGGSCHEVEANTLNEFGSAVGLFYKFMTSSDKIYNPSLYSTSDFSTSPTSSSSKSPNVAEIISKGRDHGIATYSQWRKECGGGELKTYEDLIDLIDSNILKSLRDLYPDVLDVDLILLGIAENPVYGSLLGPTFGCIMALQFQKTKFGDTYWYTNKLTEDQLEEVKKTSISAMMCRHQKTSIIQKDVFKAADNFQNIPIFCNSSVFAKPDFSKWVETPEKHKNEQFDDILGECILEVFEARNRQRPATLQEGLHNSVALKSYGSMMLAKDEAVNEANVSLILLEATKKLVKLKHIELDSIQSVNIGEDFGKKSDSQCNPKNLPCDSTNPYRSYTGWCNNLETPSLANTFRELRRLLPPAYEDGIDLPRSKTITGSRLPSPRVISNMVHHAKKIEHVKYSHFVMEFGQFIDHDITHSPVDQNSDGTALNCSRCDSGRFVSPSCFPIPVPVNDVHFEPFSCLSFVRSLPAQKTLGYRNQMNQVSAYLDGSVMYGSTKCEGDRLRTFQDGKMKTTQTSRAPRHYGITLSQSDESEQDGCVSAPDAPCFIAGDDRNSQQTLLIAVHSVFHREHERITTTLKEINPNWDDEKIYQETRKLISAEFAHIVYNEYLPIIIGQKLIDDYDLRPRQDGYYDGYENCDASILQPFATAAFRFGHSTVTRFTPMQETVHDPATCVVDLASDFLNMSKIYDNEAVEQILGGMHGKHQMMTDRFVDDAIRNFLFSDRGRRGTGLDLISINIQRGRDHGIPPYNHYRSFCGLSRLTSFYSIFSDINQDGLTAIGKVYESPDDIDLFTGIVSEKTIPGGIVGPTAACIIAEQFRRLKKCDRFYYENGEDHSKFSASQLKEVRKTSMSALICANTKVPKISKDVFSVPDPFRYS,soluble
